Laboratory results from patent US20210253725A1 (BIONTECH, published 2021).

T1: CD134 expressed on the cell surface of HT1080_OX40 cells (human, UniProt P43489 29-277)
T1 sequence (looked up): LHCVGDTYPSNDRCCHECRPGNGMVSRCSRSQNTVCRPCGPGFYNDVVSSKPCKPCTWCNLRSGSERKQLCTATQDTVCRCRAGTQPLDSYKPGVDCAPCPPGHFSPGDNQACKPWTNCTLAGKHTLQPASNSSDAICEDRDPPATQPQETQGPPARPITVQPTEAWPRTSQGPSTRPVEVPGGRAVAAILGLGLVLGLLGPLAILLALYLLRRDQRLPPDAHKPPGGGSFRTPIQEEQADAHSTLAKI

T2: CD134 protein (His-tagged, Sino Biological Inc. 10481-H08H) (human, UniProt P43489 29-216)
T2 construct: bought protein coated on ELISA plates; also called OX40; TNFRSF4; not shown: His tag
T2 sequence (looked up): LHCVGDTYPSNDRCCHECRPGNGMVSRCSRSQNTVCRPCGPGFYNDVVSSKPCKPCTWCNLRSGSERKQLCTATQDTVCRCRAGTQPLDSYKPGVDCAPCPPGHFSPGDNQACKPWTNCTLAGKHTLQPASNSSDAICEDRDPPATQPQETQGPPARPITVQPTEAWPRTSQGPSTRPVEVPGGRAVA


What was measured:
[1] = biological target: T1, CD134 expressed on the cell surface of …; experiment: cell-based or functional assay
[2] = biological target: T2, CD134 protein (His-tagged, Sino …); experiment: ELISA, coated His-tagged CD134
[3] = biological target: T1, CD134 expressed on the cell surface of …; experiment: HT1080_OX40 cells, imaging
Note: test concentration or dose not given here.

| Functional assay Cross-linked by F(ab′)2 fragment IL-8 [1] [abs. corr.] | Functional assay IL-8 [1] [abs. corr.] | ELISA [abs. corr.] [2] [abs. corr.] | Cellular binding assay [RFU] [3] [RFU] | Binder |
| --- | --- | --- | --- | --- |
| 2.1 | 0.209 | 2.52 | 452 | P018.S.12.A.G03 (antibody, V domains shown, V regions on human Ig constant parts; also called AB134_85) VH: QSLEESGGRLVTPGGSLTLTCTLSGIDLSSNAISWVRQAPGKGLEWIGIIFPGDNIYYATWAKGRFTISKTSTTVDLKMTSLRTADTATYFCARYHADDSVDLWGPGTLVTVSS VL: AYDMTQTPASVSEPVGGTVTIKCQASQSINGWLSWYQQKPGQRPRLLIYRASDLAPGVSSRFKGSGSGTQFTLTISDVESADAATYYCHLGDIYSNIDYVFGGGTEVVVK |
| 2.1 | -0.075 | 2.66 | 527 | P018.S.11.A.B03 (antibody, V domains shown, V regions on human Ig constant parts; also called AB134_24) VH: QSLEESGGRLVTPGTPLTLTCTVSGFSLSNYAMSWVRQAPGKGLEWIAIISGSGSTNYASWAKGRFTLSKASTTVALKITSPTTEDTATYFCGRGRDDDYAWDLWGQGTLVTVSS VL: DVVMTQTPASVSEPVGGTVTIKCQASQTISNYLAWYQQKPGQPPKLLIYAASTLASGVSSRFRGSGSGTEFSLTISDLESADAATYYCHCTYYDSSYHGFGGGTEVVVK |
| 2.19 | 0.348 | 2.37 | 527 | P018.S.12.A.H05 (antibody, V domains shown, V regions on human Ig constant parts; also called AB134_91) VH: QSLEESGGDLVKPGASLTLTCTASGFSFDIDYYMCWVRQAPGKGLEWIACIYAGSSGSTYYASWAKGRFTISKTSSTTVTLQMPSLTAADTATYFCARHYAGYAGDAYATDYYFNLWGRGTLVTVSS VL: DIVMTQTPSSVSATVGDTVTINCQASQSVSNFLAWYQQKPGQPPKPLIYGASNLESGVPSRFRGSGSGTEFTLTISGMKAEDAATYYCQSGYYSATFGAGTKVEIK |
| 2.05 | 1.07 | 1.18 | 446 | P018.S.12.A.B03 (antibody, V domains shown, V regions on human Ig constant parts; also called AB134_58) VH: QSLEESGGRLVTPGTPLTLICTVSGIDLSSGAMGWVRQAPGKGLEYIGYIYTGSGTTSYASWVNGRFTISMTSTTVDLKITSPTTEDTATYFCARDAASSYWGHFTLWGQGTLVTVSS VL: DIVMTQTPASVEAAVGGTVTIKCQASENIYSSLAWYQQKPGQPPKLLIYRTSTLASGVPSRFKGSGSGTQFTLTISDLESDDAATYYCQSYYHNSGGGYDYGFGGGTEVVAK |
| 2.11 | 0.568 | 2.25 | 486 | P018.S.11.A.F04 (antibody, V domains shown, V regions on human Ig constant parts; also called AB134_40) VH: QSVEESGGRLVTPGTPLTLTCTVSGFSLSRYTMGWVRQAPGKGLEYIGIIYGDDNTYYASWAKGRLTISKTSSTTVDLKITSPTTEDTATYFCASCAPIYYNTFSFNLWGQGTLVTVSA VL: AYDMTQTPASVEVAVGGTVTIKCQASQTIGGSLSWYQQKPGQPPKLLIYAAATLASGVPSRFKGSGSGTQFTLTISGVESDDAATYYCQQHYTGDNVNNPFGGGTEVVVK |
| 2.1 | 0.403 | 2.13 | 441 | P018.S.11.A.B06 (antibody, V domains shown, V regions on human Ig constant parts; also called AB134_27) VH: QSVEESGGRLVTPGTPLTLTCTASGFSLINYNMGWVRQAPGEGLEWIGTILTDGTVYYSNWAKGQFTISKTSTTVDLEMTSPTNEDTATYFCARDYPSYIAFDLWGPGTLVTVSS VL: AQVLTQTASSVSAAVGGTVTINCQASQSVYNDDNLAWLQQKPGQPPKLLIYGASSLASGVPSRFSGSGSGTEFTLTISGVQSEDAAIYYCQGGGFSSGWYWAFGGGTEVVVK |
| 1.99 | 0.407 | 2.08 | 534 | P018.S.12.A.G04 (antibody, V domains shown, V regions on human Ig constant parts; also called AB134_86) VH: QSVEESGGRLVTPGTPLTLTCTVSGFSLNSYDMSWVRQAPGKGLEWIGFISAIDNTYYASWAKGRFTISKTSTTVDLKITSPTTEDTATYFCASDSYGWAYVYYFNLWGPGTLVTVSS VL: AVVLTQTPASVSATVGGTVTINCRASEDIGSYLGWYQQKPGQPPKLLIHDASDLASGVPSRFSGSGSGTEFTLTISGVQSDDAATYYCQSAWYSSDSDKMAFGGGTEVVVK |
| 2.11 | 0.132 | 1.93 | 523 | P018.S.12.A.E05 (antibody, V domains shown, V regions on human Ig constant parts; also called AB134_76) VH: QSVEESGGRLVTPGGSLTLTCTASGFDLSSYATSWVRQAPGKGLEWIGIIYGSGSTTYASWVKGQFTISKSSSTTVDLKMTSLTTEDTATYFCARGLVASTDNYNLWGPGTLVTVSS VL: AAVLTQTPSPVSVAVGGTVTINCQASQSVYNNNYLAWFQQKPGQPPKLLIYLASILASGVPSRFKGSGSGTQFTLTINGVQSDDAATYYCLGDVGGGERVFGGGTEVVVK |
| 2.11 | 0.396 | 2.34 | 607 | P018.S.12.A.B01 (antibody, V domains shown, V regions on human Ig constant parts; also called AB134_56) VH: QEQLVESGGGLVQPEGSLTLTCKASGFDFSYNSMCWVRQAPGKGLEWITCIYNGDGSTWYASWAKGRFTISKTSSTTVTLQMTSLTAADTATYFCTRDFGLWGPGTLVTVSS VL: ALVMTQTPSSTSEPVGGTVTINCQASESVANHKQLSWYQQKPGQPPKVLIYYASTLASGVPSRFKGSGSGTQFTLTISDVVSDDAATYYCSGYKSISTDGNAFGGGTEVVVK |
| 2.14 | 0.936 | 2.05 | 571 | P018.S.12.A.C02 (antibody, V domains shown, V regions on human Ig constant parts; also called AB134_62) VH: QEQLVESGGGLVQPEGSLTLTCTASGFSFSNNAMCWVRQAPGKGLEWIACIYDGSSGSTYYATWAKGRFTISKTSSTTVTLQMTSLTAADTATYFCARAYGGYTVYDYAFNLWGPGTLVTVSS VL: DVVMTQTPASVSEPVGGTVTIKCQASQSIGSDLAWYQQKPGQPPKLLIYYTTNLETGVSSRFKGSRSGTEYALTISDLESADAATYYCQYGVRSTYSFGGGTEVVVK |
| 2.11 | 0.238 | 1.96 | 483 | P018.S.12.A.C03 (antibody, V domains shown, V regions on human Ig constant parts; also called AB134_63) VH: QEQLKESGGDLVTPGTPLTLTCTVSGFSLSSYAMAWVRQAPGKGLEYIGFIDTDGSAYYASWAKGRFTISRTSTTVDLKITSPTTEDTATYFCAGDSYGYAGFVYFNLWGPGTLVTVSS VL: DVVMTQTPASVSEPVGGTVTIKCQASQNIYSSLAWYQQKPGQPPKLLIYDASDLASGVPSRFKGSGSGTQFTLTISDLESDDAATYYCQCSYYGVDYVGGFGGGTEVVVK |
| 2.11 | 1.99 | 3.21 | 331 | P018.S.04.A.B04 (antibody, V domains shown, V regions on human Ig constant parts; also called AB134_6) VH: QSLEESGGRLVTPGTPLTLTCTASGIDLNNYAMSWVRQAPGKGLEWIGIISGAGYTYYTTWAKGRFTISKTSTTVDLKITSPTTEDTATYFCARIYDSYGYAYVPYYDMDLWGPGTLVTVSS VL: AAVLTQTPSPVSTAVGGTVTINCQSSQSVFMNNYLSWYQQKPGQPPKLLIYDASTLASRVPDRFSGSGSGTQFTLTISGVQSDDAAAYYCLGGYDDDSATTFGGGTEVVVE |
| 2.1 | 0.881 | 2.35 | 525 | P018.S.12.A.C06 (antibody, V domains shown, V regions on human Ig constant parts; also called AB134_66) VH: QSVEESGGRLVKPDETLTLICTVSGIDLSINVVGWVRQAPGEGLEWIGDISSHGDTIYATWAKGRFTISKTSTTVDLKMTSLTASDTATYFCARYVGDGYYDLWGPGTLVTVSS VL: AYDMTQTPASVSAAVGGTVTINCQASQSISNLLAWYQQKPGQRPKLLIYDTSKLASGVPSRFKGSGSGTQFTLTISDLESADAATYYCQQSYSSSNIANLFGGGTEVVVK |
| 2.14 | 0.071 | 2.41 | 600 | P018.S.12.A.A01 (antibody, V domains shown, V regions on human Ig constant parts; also called AB134_50) VH: QSVEESGGRLVTPGTPLTLTCTVSGFSLSSYAMIWVRQAPGKGLEYIGYISYDGSTYYASWVKGRFTISKTSTTVDLKMTSLTTEDTATYFCARARIDDGYGNLWGQGTLVTVSS VL: DVVMTQTPASVSEPVGGTVTIKCQASESISNYLAWYQQKPGQPPKLLIYAASYLASGVPSRFRGSGSGTEFTLTISDLESADAATYYCQCTYVASTYVGTFGGGTEVVVK |
| 2.07 | 1.84 | 1.4 | 451 | P018.S.12.A.B06 (antibody, V domains shown, V regions on human Ig constant parts; also called AB134_60) VH: QEQLEESGGGLVQPEGSLTLTCTASGFSFSYYWMCWVRQAPGKGLEWSACIGTGSGSTYYATWAKGRFTISKTSSTTVTLQMTSLTAADTATYFCARDWGIYSSDAYYMDYFNLWGPGTLVTVSS VL: AFELTQTPASVEAAVGGTVTIKCQASQSIGSYLAWYQQKPGQPPKPLIYEASKLASGVSSRFKGSGSGTQFTLTISGVESADAATYYCQQGGISTNVQNAFGGGTEVVVK |
| 2.15 | 0.33 | 1.67 | 396 | P018.S.11.A.F05 (antibody, V domains shown, V regions on human Ig constant parts; also called AB134_41) VH: QSLEESGGRLVTPGTPLTLTCTVSGFSLSRYHMSWVRQAPGKGLEYIGYIHTDDTNWYASWAKGRFTISKTSTTVDLKITSPTTEDTATYFCARVSSVGGYYFDLWGQGTLVTVSS VL: DVVMTQTPASVSEPVGGTVTIKCQASEDIYNLLAWYQQKPGQPPKLLIYAASTLASGVPSRFKGSGSGTQFTLTISDLESADAATYYCQNNYLISSYGVGFGGGTEVVVK |
